In US20220305003A1, “METHODS OF TREATING CANCER WITH AN INHIBITOR OF ZNF827” (CHILDREN'S MEDICAL RESEARCH INSTITUTE, priority 2019, published 2022):

T1: ZNF827 ZnF4-9 deleted (Homo sapiens)
T1 chain: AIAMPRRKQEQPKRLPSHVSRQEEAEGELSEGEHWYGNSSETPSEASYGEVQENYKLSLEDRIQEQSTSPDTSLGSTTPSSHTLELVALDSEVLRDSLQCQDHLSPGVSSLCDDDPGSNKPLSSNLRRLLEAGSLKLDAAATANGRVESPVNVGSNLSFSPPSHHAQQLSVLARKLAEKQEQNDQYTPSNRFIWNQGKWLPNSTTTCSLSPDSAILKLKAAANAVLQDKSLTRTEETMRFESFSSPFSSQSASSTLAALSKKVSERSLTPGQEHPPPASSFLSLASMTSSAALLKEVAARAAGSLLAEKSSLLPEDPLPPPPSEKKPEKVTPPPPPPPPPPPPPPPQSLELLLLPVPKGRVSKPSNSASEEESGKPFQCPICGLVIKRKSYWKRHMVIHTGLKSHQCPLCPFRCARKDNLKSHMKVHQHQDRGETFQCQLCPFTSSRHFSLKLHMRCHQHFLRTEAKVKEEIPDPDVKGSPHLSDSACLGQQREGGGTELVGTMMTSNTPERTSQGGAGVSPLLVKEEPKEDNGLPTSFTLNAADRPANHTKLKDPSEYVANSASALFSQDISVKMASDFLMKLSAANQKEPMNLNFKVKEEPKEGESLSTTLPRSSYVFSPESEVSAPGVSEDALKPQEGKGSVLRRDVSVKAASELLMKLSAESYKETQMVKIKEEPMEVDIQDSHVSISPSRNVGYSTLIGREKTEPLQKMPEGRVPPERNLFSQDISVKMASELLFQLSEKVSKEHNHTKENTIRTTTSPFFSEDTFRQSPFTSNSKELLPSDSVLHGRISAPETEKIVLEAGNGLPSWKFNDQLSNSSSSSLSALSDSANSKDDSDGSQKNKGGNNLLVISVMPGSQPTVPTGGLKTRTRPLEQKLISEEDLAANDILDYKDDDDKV

T2: ZNF827 full length (Homo sapiens, UniProt Q17R98 SEQ:1-1081)
T2 sequence: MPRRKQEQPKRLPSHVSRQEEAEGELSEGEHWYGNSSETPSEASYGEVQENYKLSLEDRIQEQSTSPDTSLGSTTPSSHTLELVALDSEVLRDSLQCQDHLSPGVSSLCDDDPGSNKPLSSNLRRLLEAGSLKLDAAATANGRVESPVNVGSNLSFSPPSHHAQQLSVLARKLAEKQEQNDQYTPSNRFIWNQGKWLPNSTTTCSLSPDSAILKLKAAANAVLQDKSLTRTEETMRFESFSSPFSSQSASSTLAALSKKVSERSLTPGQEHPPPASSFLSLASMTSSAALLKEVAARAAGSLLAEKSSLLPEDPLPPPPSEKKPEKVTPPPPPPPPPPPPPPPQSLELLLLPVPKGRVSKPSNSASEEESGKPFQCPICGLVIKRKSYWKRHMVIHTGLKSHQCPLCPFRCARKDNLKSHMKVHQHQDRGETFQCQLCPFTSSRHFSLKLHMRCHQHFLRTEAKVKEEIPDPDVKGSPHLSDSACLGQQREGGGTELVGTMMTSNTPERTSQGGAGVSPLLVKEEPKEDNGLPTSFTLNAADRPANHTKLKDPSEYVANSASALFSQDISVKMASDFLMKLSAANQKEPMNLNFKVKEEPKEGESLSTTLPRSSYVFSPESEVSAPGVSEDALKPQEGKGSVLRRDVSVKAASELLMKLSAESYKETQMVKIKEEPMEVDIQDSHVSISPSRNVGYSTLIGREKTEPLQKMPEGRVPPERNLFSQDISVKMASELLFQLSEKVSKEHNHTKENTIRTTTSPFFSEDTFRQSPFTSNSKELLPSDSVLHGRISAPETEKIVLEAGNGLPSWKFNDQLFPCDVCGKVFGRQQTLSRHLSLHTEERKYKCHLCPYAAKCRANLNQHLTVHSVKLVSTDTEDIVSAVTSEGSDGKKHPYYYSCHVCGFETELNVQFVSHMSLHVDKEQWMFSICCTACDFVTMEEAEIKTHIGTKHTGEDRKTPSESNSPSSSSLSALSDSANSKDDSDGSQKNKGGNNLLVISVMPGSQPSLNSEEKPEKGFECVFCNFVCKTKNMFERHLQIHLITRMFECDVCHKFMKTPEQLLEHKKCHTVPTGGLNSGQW

T3: ZNF827 ZnF1-3 deleted (Homo sapiens, UniProt Q17R98 SEQ:4-997)
T3 chain: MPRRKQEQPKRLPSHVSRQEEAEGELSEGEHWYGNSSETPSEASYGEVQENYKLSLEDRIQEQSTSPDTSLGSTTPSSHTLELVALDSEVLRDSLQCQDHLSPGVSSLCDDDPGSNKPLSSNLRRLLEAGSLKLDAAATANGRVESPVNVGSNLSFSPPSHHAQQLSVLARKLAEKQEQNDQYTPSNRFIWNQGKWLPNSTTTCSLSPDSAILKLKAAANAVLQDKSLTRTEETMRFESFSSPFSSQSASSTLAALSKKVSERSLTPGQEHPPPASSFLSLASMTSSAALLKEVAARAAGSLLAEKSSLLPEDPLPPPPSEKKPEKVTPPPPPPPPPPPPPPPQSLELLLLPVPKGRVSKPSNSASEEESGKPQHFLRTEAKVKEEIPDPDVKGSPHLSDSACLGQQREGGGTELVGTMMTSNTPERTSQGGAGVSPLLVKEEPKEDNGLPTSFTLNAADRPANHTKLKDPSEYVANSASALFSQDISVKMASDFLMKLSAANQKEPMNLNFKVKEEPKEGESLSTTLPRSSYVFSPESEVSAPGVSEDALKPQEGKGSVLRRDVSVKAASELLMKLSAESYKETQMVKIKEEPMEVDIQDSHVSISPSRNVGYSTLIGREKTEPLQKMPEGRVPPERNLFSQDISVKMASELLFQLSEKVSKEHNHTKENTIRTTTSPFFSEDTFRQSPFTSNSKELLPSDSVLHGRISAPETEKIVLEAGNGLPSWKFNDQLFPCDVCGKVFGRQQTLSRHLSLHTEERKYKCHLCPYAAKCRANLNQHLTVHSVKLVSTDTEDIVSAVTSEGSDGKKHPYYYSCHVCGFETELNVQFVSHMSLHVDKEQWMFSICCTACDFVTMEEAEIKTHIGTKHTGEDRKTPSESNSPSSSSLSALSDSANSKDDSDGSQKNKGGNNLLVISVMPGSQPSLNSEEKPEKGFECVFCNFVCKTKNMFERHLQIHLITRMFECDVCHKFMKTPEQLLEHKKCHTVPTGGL

B1: ZNF827 full length (human zinc finger protein ZNF827) (other)
chain: T2 sequence
notes: Co-IPs used lysates of human cells (U-2 OS, HT1080) from overexpression experiments; also called Myc-DDK-tagged ZNF827 full length; pCMV6 Myc-DDK-tagged ZNF827 (RC221405); not shown: Myc-DDK tag of the pCMV6 vector
B2: ss pentaprobe 3 (ssDNA)
DNA: CGCTCTATTCTACTGTCCTGTGCATTCAATCGTTGAGTTCGATCTAGTCTCGTCTAACCCTCCCCTGCTCCGCTGGTCTGGCCTCGCCTATCCTACCCAT
B3: ss pentaprobe 9 (ssDNA)
DNA: ATGGGTAGGATAGGCGAGGCCAGACCAGCGGAGCAGGGGAGGGTTAGACGAGACTAGATCGAACTCAACGATTGAATGCACAGGACAGTAGAATAGAGCG

What was measured:
[1] = target: T4, topoisomerase 2-binding protein 1 (TOPBP1) (human, UniProt Q92547 1-1522); test: co-IP with Myc antibody, Western blot
T4 construct: TOPBP1 in lysates of human cells, co-immunoprecipitated with Myc antibody
Procedure: Resuspended cells were lysed by incubation with rotation for 1 hour at 4° C. For Benzonase treatment to remove DNA, samples were incubated in the lysis buffer described above supplemented with 25 U Benzonase nuclease (Novagen, Merck Millipore) for 2 hours at 4° C. Lysates were subjected to centrifugation at 13,000 rpm for 40 minutes at 4° C. to remove cell debris. The supernatant was then transferred to a fresh cold low bind 1.5 mL tube for subsequent immunoprecipitation. For immunoprecipitation, protein lysates were incubated with antibody for the protein of interest (10 μg per mL lysate) or IgG control (Refer to Tables 4 and 5 for the list of antibodies used in this study), preincubated with Dynabeads Protein G, as per manufacturer's instructions (Life Technologies), with rotation overnight at 4° C. The following day, beads were washed three times in cold lysis buffer and separated on a magnetic rack. Proteins were then eluted from the beads by resuspension in 50 mM Glycine pH 2.8 and sodium dodecyl sulphate (SDS) sample buffer (0.2 M Tris-Cl, pH 6.8, 28% glycerol, 13.5% β-mercaptoethanol, 6% SDS, 6 mM EGTA, and 0.07% bromophenol blue) for 10 minutes at 70° C. and subjected to Western blot analysis, as described below, to detect various protein interactions. […]

ZNF827 ZnF4-9 deleted = target: T1, ZNF827 ZnF4-9 deleted; test: EMSA; 0.8 mM ZnCl2, 100 mM KCl, poly(dI:dC), on ice; details: tags: HaloTag (pHTN), expressed in HEK 293T, tag removed by HaloTEV cleavage; label: 32P (gamma)
Procedure: (§1) Purified proteins were quantified using a BCA assay using the Pierce™ BCA Protein Assay Kit according to the manufacturer's instructions. Equal amounts of purified proteins were incubated in binding buffer (20 mM HEPES-KOH, pH7.9, 100 mM KCl, 0.8 mM ZnCl₂, 0.2 mM EDTA, 5% glycerol, 0.5 mM DTT and 0.5 mM PMSF) with 6.25 μg/mL poly (dI:dC) and 50 ng/μL BSA on ice for 20 minutes. ˜0.12 nM (˜2.5 fmol) γ-³²P labelled DNA oligonucleotide (see Table 3) probes were added to samples and incubated on ice for another 30 minutes. Binding reactions were loaded onto an 8% native acrylamide/bisacrylamide (19:1, Biorad) gel pre-run at 100V in 0.5× TB buffer (89 mM Tris, 89 mM boric acid) for 20 minutes. Gels were electrophoresed at 150 V for 150 minutes at 4° C., dried at 65° C. for 45 minutes, and then exposed to a Phosphor screen overnight. Gel images were obtained by scanning the screens with a Typhoon FLA9500 Imager (GE Life Sciences).

ZNF827 full length = target: T2, ZNF827 full length; test: as above; details: tags: HaloTag (pHTN), expressed in HEK 293T, tag removed by HaloTEV cleavage; label: 32P (gamma)
Procedure: as §1

ZNF827 ZnF1-3 deleted = target: T3, ZNF827 ZnF1-3 deleted; test: EMSA; binding abrogated; details: tags: HaloTag (pHTN), expressed in HEK 293T, tag removed by HaloTEV cleavage; label: 32P (gamma)
Procedure: as §1

T4 sequence (Q92547 whole entry): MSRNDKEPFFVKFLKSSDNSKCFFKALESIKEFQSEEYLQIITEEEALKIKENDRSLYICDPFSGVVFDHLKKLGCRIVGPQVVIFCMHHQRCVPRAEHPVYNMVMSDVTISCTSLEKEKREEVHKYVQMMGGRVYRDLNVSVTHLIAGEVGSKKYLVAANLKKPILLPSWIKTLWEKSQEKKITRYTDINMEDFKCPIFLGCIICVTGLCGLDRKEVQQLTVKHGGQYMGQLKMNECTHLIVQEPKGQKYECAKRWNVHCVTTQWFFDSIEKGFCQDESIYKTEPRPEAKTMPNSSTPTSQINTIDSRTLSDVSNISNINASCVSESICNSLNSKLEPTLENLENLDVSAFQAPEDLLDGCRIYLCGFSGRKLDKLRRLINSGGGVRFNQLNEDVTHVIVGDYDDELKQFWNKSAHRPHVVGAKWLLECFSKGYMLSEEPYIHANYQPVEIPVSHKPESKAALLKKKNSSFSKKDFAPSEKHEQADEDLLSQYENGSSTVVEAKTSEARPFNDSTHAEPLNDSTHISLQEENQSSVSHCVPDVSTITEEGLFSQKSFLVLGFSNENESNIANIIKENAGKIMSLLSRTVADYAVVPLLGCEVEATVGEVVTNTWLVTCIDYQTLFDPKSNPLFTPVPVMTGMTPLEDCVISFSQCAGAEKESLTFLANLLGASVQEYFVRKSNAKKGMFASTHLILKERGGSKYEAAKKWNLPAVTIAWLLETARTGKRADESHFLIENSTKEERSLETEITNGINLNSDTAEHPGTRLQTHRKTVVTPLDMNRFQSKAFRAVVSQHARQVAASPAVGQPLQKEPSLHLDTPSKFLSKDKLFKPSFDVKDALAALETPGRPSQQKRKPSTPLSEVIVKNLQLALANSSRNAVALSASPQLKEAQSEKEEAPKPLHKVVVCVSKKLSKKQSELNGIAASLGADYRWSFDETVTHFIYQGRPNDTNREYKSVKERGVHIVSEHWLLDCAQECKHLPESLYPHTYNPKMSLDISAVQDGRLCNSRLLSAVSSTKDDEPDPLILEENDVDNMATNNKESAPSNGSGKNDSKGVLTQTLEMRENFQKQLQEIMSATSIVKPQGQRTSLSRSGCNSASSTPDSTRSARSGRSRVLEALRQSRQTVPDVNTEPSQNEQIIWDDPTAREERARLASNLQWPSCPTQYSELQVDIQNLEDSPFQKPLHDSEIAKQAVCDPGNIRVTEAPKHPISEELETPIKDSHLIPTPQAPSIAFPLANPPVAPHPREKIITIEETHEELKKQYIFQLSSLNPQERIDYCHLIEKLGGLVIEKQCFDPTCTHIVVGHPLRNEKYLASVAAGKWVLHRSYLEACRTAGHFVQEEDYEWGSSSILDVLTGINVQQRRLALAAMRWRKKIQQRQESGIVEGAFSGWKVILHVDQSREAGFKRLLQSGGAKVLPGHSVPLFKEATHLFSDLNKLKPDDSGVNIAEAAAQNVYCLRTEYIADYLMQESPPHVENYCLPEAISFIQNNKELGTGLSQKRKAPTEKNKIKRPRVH

Binder | binding result [1] | binding result (ZNF827 ZnF4-9 deleted) | binding result (ZNF827 full length) | binding result (ZNF827 ZnF1-3 deleted)
B1 | binds |  |  | 
B2 |  | binds | binds | no binding
B3 |  | binds | binds | no binding
